Measured values as given in the supplement of paper PMC7125110.
± gives the standard error. Variants at the floor of the assay were thinned out.

B1: glmS ribozyme (parent)
chain: AUAAAAGCGCCAGAACUACAGAAAUGUAGUUGACGAGGAGGAGGUUUAUCGAAUUUUCGGCGGAUGCCUCCAAA

Experiments:
Settings in all cases: with glucosamine-6-phosphate
glucosamine-6-phosphate [1] = variants of: B1; assay: self-cleavage kobs at 640 uM GlcN6P; higher = faster cleavage; RNA array
Procedure, shortened: (§1)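 A hybridised Cy3 probe tracked barcoded ribozyme variants, transcribed in situ by E. coli RNA polymerase on sequenced MiSeq chips, at 37 °C. The variants received 40 μM to 10 mM glucosamine-6-phosphate in HEPES/KCl/Mg(OAc)2 buffer. kobs came from decay fits and kcat and KM from weighted Michaelis–Menten fits.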

glucosamine-6-phosphate [2] = variants of: B1; assay: self-cleavage kobs at 2500 uM GlcN6P; higher = faster cleavage; RNA array
Procedure, shortened: as §1

glucosamine-6-phosphate [3] = variants of: B1; assay: self-cleavage kobs at 160 uM GlcN6P; higher = faster cleavage; RNA array
Procedure, shortened: as §1

glucosamine-6-phosphate [4] = variants of: B1; assay: self-cleavage kobs at 10000 uM GlcN6P; higher = faster cleavage; RNA array
Procedure, shortened: as §1

Variant	self-cleavage kobs at 640 uM GlcN6P (glucosamine-6-phosphate [1]) [s⁻¹]	self-cleavage kobs at 2500 uM GlcN6P (glucosamine-6-phosphate [2]) [s⁻¹]	self-cleavage kobs at 160 uM GlcN6P (glucosamine-6-phosphate [3]) [s⁻¹]	self-cleavage kobs at 10000 uM GlcN6P (glucosamine-6-phosphate [4]) [s⁻¹]
A6C G13C G51U	< 1e-05			
A6C C16A U31C	< 1e-05	< 1e-05		
G44U U49A U54A G62U	< 1e-05	< 1e-05	< 1e-05	
G40U G60A U65G	< 1e-05	< 1e-05	< 1e-05	
U56A U69G	5.7e-05 ± 2e-05	0.000127 ± 4.2e-05	5.23e-05 ± 1e-05	4.58e-05 ± 8.9e-06
G44U U65G C70G		< 1e-05	< 1e-05	
A42C G43C C68A C71A		< 1e-05	< 1e-05	
A53G A64U U69G	0.000772 ± 0.00022	0.000517 ± 0.00019	0.000191 ± 6.9e-05	
A6C C11A U47C	< 1e-05	< 1e-05		
A6C U46C U47C G59A	< 1e-05			
A42U U55A G60A C71G	< 1e-05	< 1e-05	< 1e-05	
A6G U46C U47A	< 1e-05			
C50G C61U C71U	0.000232 ± 7.4e-05	9.98e-05 ± 2.4e-05	0.000138 ± 4.3e-05	0.000211 ± 5.4e-05
A6U G9C A12C U55A	< 1e-05	< 1e-05		
C50G U55A		0.000374 ± 0.00012	9.39e-05 ± 2.2e-05	
G41C A52C C68U			< 1e-05	
A6C C34A G41C C68A	< 1e-05	< 1e-05		
G43U C61G C71U			< 1e-05	
U47A G66A	0.00249 ± 0.00067	0.00842 ± 0.0039	0.00046 ± 0.00012	
A42C C58A	< 1e-05		< 1e-05	< 1e-05
A6U G40U U65C C68U	< 1e-05	< 1e-05		
A6G U57A C68G	7.18e-05 ± 2.3e-05			

Variant	self-cleavage kobs at 640 uM GlcN6P (glucosamine-6-phosphate [1]) [s⁻¹]	self-cleavage kobs at 2500 uM GlcN6P (glucosamine-6-phosphate [2]) [s⁻¹]	self-cleavage kobs at 160 uM GlcN6P (glucosamine-6-phosphate [3]) [s⁻¹]	self-cleavage kobs at 10000 uM GlcN6P (glucosamine-6-phosphate [4]) [s⁻¹]
A6U G29C U56A	< 1e-05			
A6G U31G G35A U65C	< 1e-05	< 1e-05		
G51C C67G			< 1e-05	< 1e-05
G41U U46G C61A	< 1e-05	< 1e-05	< 1e-05	
G66U U69C	0.000207 ± 6.9e-05	0.000653 ± 0.00016	0.000111 ± 2e-05	
A6G G51A G59U G60A	< 1e-05	< 1e-05		
A53C C58G G60A C67U		8.04e-05 ± 2.5e-05	0.000139 ± 3.1e-05	
A52C G59A	< 1e-05	< 1e-05	< 1e-05	< 1e-05
A52C G59U	< 1e-05	< 1e-05	< 1e-05	< 1e-05
A6G G41A G43C C50G C61U	< 1e-05	< 1e-05		
U45C C50G G51A A53U G60C	< 1e-05	< 1e-05	< 1e-05	
G63U A64C	< 1e-05	< 1e-05	< 1e-05	< 1e-05
U45A A53U U65A	0.0024 ± 0.00081	0.00652 ± 0.0016	0.000624 ± 0.00014	
G51U A53U	< 1e-05	< 1e-05	< 1e-05	< 1e-05
G43C U56A	< 1e-05	< 1e-05	< 1e-05	< 1e-05
A6U G9A C50U	< 1e-05			
G44A G66C			< 1e-05	
A42G G51C G60U			< 1e-05	
A53G G60A G66C			< 1e-05	
G59U G60A	< 1e-05		< 1e-05	
A6U A33G U69G	9.46e-05 ± 3.6e-05	0.000191 ± 6.5e-05		
G41U G51C G62A C68U	< 1e-05	< 1e-05	< 1e-05	

Variant	self-cleavage kobs at 640 uM GlcN6P (glucosamine-6-phosphate [1]) [s⁻¹]	self-cleavage kobs at 2500 uM GlcN6P (glucosamine-6-phosphate [2]) [s⁻¹]	self-cleavage kobs at 160 uM GlcN6P (glucosamine-6-phosphate [3]) [s⁻¹]	self-cleavage kobs at 10000 uM GlcN6P (glucosamine-6-phosphate [4]) [s⁻¹]
G43A A52U	< 1e-05	< 1e-05	< 1e-05	
A6G A48G C61G	< 1e-05			
G51C U65G	< 1e-05	< 1e-05	< 1e-05	
C50U A52G C70A	0.000125 ± 3.7e-05	6.9e-05 ± 2.3e-05	5.11e-05 ± 2.3e-05	
G44C G51U C68G			< 1e-05	
A52G C61U C68G	0.000189 ± 6.4e-05		0.000141 ± 4.2e-05	
A6U C50G U55A C71U	0.00151 ± 0.00047			
G41A G51C G63U C70G	< 1e-05		< 1e-05	
G43U G60U U69G	< 1e-05		< 1e-05	
G44U G62A	< 1e-05	< 1e-05	< 1e-05	
G43C A52C U57C	< 1e-05		< 1e-05	
G43A U49C G66A C70G	< 1e-05	< 1e-05	< 1e-05	
A6G G29U G62C	< 1e-05			
A52G G60A			< 1e-05	< 1e-05
U46G U56G C70U	0.000436 ± 9.2e-05	0.00119 ± 0.00031	0.000211 ± 5.3e-05	
G41U U65A C68G		< 1e-05	< 1e-05	
G41U A52U U57C			< 1e-05	
U2C G35U C68U	< 1e-05			
G43A G44A U47A			< 1e-05	
G41A A53U U54G	0.000241 ± 8.7e-05	0.000742 ± 0.0002	0.000102 ± 3.4e-05	0.000285 ± 7.8e-05
U47G C50U U56C A64U	< 1e-05	< 1e-05	< 1e-05	< 1e-05
G51C U54G	< 1e-05		< 1e-05	

Variant	self-cleavage kobs at 640 uM GlcN6P (glucosamine-6-phosphate [1]) [s⁻¹]	self-cleavage kobs at 2500 uM GlcN6P (glucosamine-6-phosphate [2]) [s⁻¹]	self-cleavage kobs at 160 uM GlcN6P (glucosamine-6-phosphate [3]) [s⁻¹]	self-cleavage kobs at 10000 uM GlcN6P (glucosamine-6-phosphate [4]) [s⁻¹]
A6G A15C G32U	< 1e-05			
G43A U54C U69G	< 1e-05		< 1e-05	< 1e-05
C67U C68U C71G			7.37e-05 ± 2e-05	
G51C A53G	< 1e-05	< 1e-05	< 1e-05	
A6U A36C A39U C71G	< 1e-05	< 1e-05		
U45A U57C	3.94e-05 ± 8.9e-06	0.000268 ± 4.2e-05	3.83e-05 ± 1.6e-05	0.000355 ± 4.8e-05
A53C G60U A64U U65G	< 1e-05		< 1e-05	
G51U U69G C71A	7.38e-05 ± 2.2e-05	7.85e-05 ± 3.7e-05	0.00015 ± 5.2e-05	
G51A G66A	< 1e-05		< 1e-05	
G40C G63A	< 1e-05	< 1e-05	< 1e-05	< 1e-05
A6G C67G C68A	7.11e-05 ± 3.1e-05			
C58G C67G	0.000101 ± 1.3e-05	5.23e-05 ± 1e-05	5.68e-05 ± 1.1e-05	1.83e-05 ± 8.7e-06
A64U C70A			< 1e-05	< 1e-05
A6G G38A C50G	0.00032 ± 7.9e-05	0.000113 ± 3.5e-05		
A6C A42U C70G	< 1e-05	< 1e-05		
G41A G62C	< 1e-05	< 1e-05	< 1e-05	
G43C U45A C67U	0.000977 ± 0.00034	0.00269 ± 0.00071	0.000282 ± 9.2e-05	
A6C C34G C61U	< 1e-05	< 1e-05		
A6U C10A A14U C70U	0.000391 ± 8.2e-05	5.43e-05 ± 2.3e-05		
G44A A48G G51U G59A		< 1e-05	< 1e-05	
A6C C8G A48G G60U C68U	< 1e-05	< 1e-05		
C58G C68G C71U			9.65e-05 ± 2.3e-05	

Variant	self-cleavage kobs at 640 uM GlcN6P (glucosamine-6-phosphate [1]) [s⁻¹]	self-cleavage kobs at 2500 uM GlcN6P (glucosamine-6-phosphate [2]) [s⁻¹]	self-cleavage kobs at 160 uM GlcN6P (glucosamine-6-phosphate [3]) [s⁻¹]	self-cleavage kobs at 10000 uM GlcN6P (glucosamine-6-phosphate [4]) [s⁻¹]
A6G A39C G63U A64U C67G	< 1e-05			< 1e-05
G51U C61U	< 1e-05	< 1e-05	< 1e-05	< 1e-05
A6G C11G C34U U45G	< 1e-05			
A53C G63A	< 1e-05		< 1e-05	< 1e-05
U45A A52U U65G	< 1e-05		< 1e-05	
U45G U47G	0.00314 ± 0.00086	0.00347 ± 0.00055	0.000328 ± 9.1e-05	
G41A A48U A64U C71A		< 1e-05	< 1e-05	
A6U A12U G13U U47A C70U	< 1e-05			
A6C A33C A48C G60U	< 1e-05			
A42C A48G U55A	< 1e-05		< 1e-05	
U54A G59A C71A	< 1e-05		< 1e-05	
A6C C16U G38U U47C G63A	< 1e-05	< 1e-05		
U65C G66C	< 1e-05		< 1e-05	< 1e-05
G51U C61G C71G	0.000494 ± 0.00014	9.55e-05 ± 2.1e-05	0.000101 ± 2.2e-05	
A6C G35C U54A	< 1e-05	< 1e-05		< 1e-05
G43C U55G			< 1e-05	
C61G A64U U65A C68U	< 1e-05		< 1e-05	
G40U C67G	< 1e-05		< 1e-05	
